Results reported in article doi:10.1101/2021.01.07.425795 (bioRxiv, 2021).

B1: very long chain acyl-CoA dehydrogenase (VLCAD) (enzyme, human, UniProt P49748 41-655, looked up)
chain: AGGAAQLALDKSDSHPSDALTRKKPAKAESKSFAVGMFKGQLTTDQVFPYPSVLNEEQTQFLKELVEPVSRFFEEVNDPAKNDALEMVEETTWQGLKELGAFGLQVPSELGGVGLCNTQYARLVEIVGMHDLGVGITLGAHQSIGFKGILLFGTKAQKEKYLPKLASGETVAAFCLTEPSSGSDAASIRTSAVPSPCGKYYTLNGSKLWISNGGLADIFTVFAKTPVTDPATGAVKEKITAFVVERGFGGITHGPPEKKMGIKASNTAEVFFDGVRVPSENVLGEVGSGFKVAMHILNNGRFGMAAALAGTMRGIIAKAVDHATNRTQFGEKIHNFGLIQEKLARMVMLQYVTESMAYMVSANMDQGATDFQIEAAISKIFGSEAAWKVTDECIQIMGGMGFMKEPGVERVLRDLRIFRIFEGTNDILRLFVALQGCMDKGKELSGLGSALKNPFGNAGLLLGEAGKQLRRRAGLGSGLSLSGLVHPELSRSGELAVRALEQFATVVEAKLIKHKKGIVNEQFLLQRLADGAIDLYAMVVVLSRASRSLSEGHPTAQHEKMLCDTWCIEAAARIREGMAALQSDPWQQELYRNFKSISKALVERGGVVTSNPLGF
B2: ACAD9 (wild type, without a tag) (enzyme, human, UniProt Q9H845 38-621, looked up)
chain: AFAKELFLGKIKKKEVFPFPEVSQDELNEINQFLGPVEKFFTEEVDSRKIDQEGKIPDETLEKLKSLGLFGLQVPEEYGGLGFSNTMYSRLGEIISMDGSITVTLAAHQAIGLKGIILAGTEEQKAKYLPKLASGEHIAAFCLTEPASGSDAASIRSRATLSEDKKHYILNGSKVWITNGGLANIFTVFAKTEVVDSDGSVKDKITAFIVERDFGGVTNGKPEDKLGIRGSNTCEVHFENTKIPVENILGEVGDGFKVAMNILNSGRFSMGSVVAGLLKRLIEMTAEYACTRKQFNKRLSEFGLIQEKFALMAQKAYVMESMTYLTAGMLDQPGFPDCSIEAAMVKVFSSEAAWQCVSEALQILGGLGYTRDYPYERILRDTRILLIFEGTNEILRMYIALTGLQHAGRILTTRIHELKQAKVSTVMDTVGRRLRDSLGRTVDLGLTGNHGVVHPSLADSANKFEENTYCFGRTVETLLLRFGKTIMEEQLVLKRVANILINLYGMTAVLSRASRSIRIGLRNHDHEVLLANTFCVEAYLQNLFSLSQLDKYAPENLDEQIKKVSQQILEKRAYICAHPLDRTC
B3: ACAD9-His6 (enzyme, human, UniProt Q9H845 38-621, looked up)
chain: AFAKELFLGKIKKKEVFPFPEVSQDELNEINQFLGPVEKFFTEEVDSRKIDQEGKIPDETLEKLKSLGLFGLQVPEEYGGLGFSNTMYSRLGEIISMDGSITVTLAAHQAIGLKGIILAGTEEQKAKYLPKLASGEHIAAFCLTEPASGSDAASIRSRATLSEDKKHYILNGSKVWITNGGLANIFTVFAKTEVVDSDGSVKDKITAFIVERDFGGVTNGKPEDKLGIRGSNTCEVHFENTKIPVENILGEVGDGFKVAMNILNSGRFSMGSVVAGLLKRLIEMTAEYACTRKQFNKRLSEFGLIQEKFALMAQKAYVMESMTYLTAGMLDQPGFPDCSIEAAMVKVFSSEAAWQCVSEALQILGGLGYTRDYPYERILRDTRILLIFEGTNEILRMYIALTGLQHAGRILTTRIHELKQAKVSTVMDTVGRRLRDSLGRTVDLGLTGNHGVVHPSLADSANKFEENTYCFGRTVETLLLRFGKTIMEEQLVLKRVANILINLYGMTAVLSRASRSIRIGLRNHDHEVLLANTFCVEAYLQNLFSLSQLDKYAPENLDEQIKKVSQQILEKRAYICAHPLDRTC
B4: ACAD9 Glu426Gln (enzyme, human, UniProt Q9H845 38-621, looked up)
chain: AFAKELFLGKIKKKEVFPFPEVSQDELNEINQFLGPVEKFFTEEVDSRKIDQEGKIPDETLEKLKSLGLFGLQVPEEYGGLGFSNTMYSRLGEIISMDGSITVTLAAHQAIGLKGIILAGTEEQKAKYLPKLASGEHIAAFCLTEPASGSDAASIRSRATLSEDKKHYILNGSKVWITNGGLANIFTVFAKTEVVDSDGSVKDKITAFIVERDFGGVTNGKPEDKLGIRGSNTCEVHFENTKIPVENILGEVGDGFKVAMNILNSGRFSMGSVVAGLLKRLIEMTAEYACTRKQFNKRLSEFGLIQEKFALMAQKAYVMESMTYLTAGMLDQPGFPDCSIEAAMVKVFSSEAAWQCVSEALQILGGLGYTRDYPYERILRDTRILLIFQGTNEILRMYIALTGLQHAGRILTTRIHELKQAKVSTVMDTVGRRLRDSLGRTVDLGLTGNHGVVHPSLADSANKFEENTYCFGRTVETLLLRFGKTIMEEQLVLKRVANILINLYGMTAVLSRASRSIRIGLRNHDHEVLLANTFCVEAYLQNLFSLSQLDKYAPENLDEQIKKVSQQILEKRAYICAHPLDRTC
B5: ACAD9 Arg532Trp (enzyme, human, UniProt Q9H845 38-621, looked up)
chain: AFAKELFLGKIKKKEVFPFPEVSQDELNEINQFLGPVEKFFTEEVDSRKIDQEGKIPDETLEKLKSLGLFGLQVPEEYGGLGFSNTMYSRLGEIISMDGSITVTLAAHQAIGLKGIILAGTEEQKAKYLPKLASGEHIAAFCLTEPASGSDAASIRSRATLSEDKKHYILNGSKVWITNGGLANIFTVFAKTEVVDSDGSVKDKITAFIVERDFGGVTNGKPEDKLGIRGSNTCEVHFENTKIPVENILGEVGDGFKVAMNILNSGRFSMGSVVAGLLKRLIEMTAEYACTRKQFNKRLSEFGLIQEKFALMAQKAYVMESMTYLTAGMLDQPGFPDCSIEAAMVKVFSSEAAWQCVSEALQILGGLGYTRDYPYERILRDTRILLIFEGTNEILRMYIALTGLQHAGRILTTRIHELKQAKVSTVMDTVGRRLRDSLGRTVDLGLTGNHGVVHPSLADSANKFEENTYCFGRTVETLLLRFGKTIMEEQLVLKWVANILINLYGMTAVLSRASRSIRIGLRNHDHEVLLANTFCVEAYLQNLFSLSQLDKYAPENLDEQIKKVSQQILEKRAYICAHPLDRTC
B6: ACAD9 Arg518His (enzyme, human, UniProt Q9H845 38-621, looked up)
chain: AFAKELFLGKIKKKEVFPFPEVSQDELNEINQFLGPVEKFFTEEVDSRKIDQEGKIPDETLEKLKSLGLFGLQVPEEYGGLGFSNTMYSRLGEIISMDGSITVTLAAHQAIGLKGIILAGTEEQKAKYLPKLASGEHIAAFCLTEPASGSDAASIRSRATLSEDKKHYILNGSKVWITNGGLANIFTVFAKTEVVDSDGSVKDKITAFIVERDFGGVTNGKPEDKLGIRGSNTCEVHFENTKIPVENILGEVGDGFKVAMNILNSGRFSMGSVVAGLLKRLIEMTAEYACTRKQFNKRLSEFGLIQEKFALMAQKAYVMESMTYLTAGMLDQPGFPDCSIEAAMVKVFSSEAAWQCVSEALQILGGLGYTRDYPYERILRDTRILLIFEGTNEILRMYIALTGLQHAGRILTTRIHELKQAKVSTVMDTVGRRLRDSLGRTVDLGLTGNHGVVHPSLADSANKFEENTYCFGRTVETLLLHFGKTIMEEQLVLKRVANILINLYGMTAVLSRASRSIRIGLRNHDHEVLLANTFCVEAYLQNLFSLSQLDKYAPENLDEQIKKVSQQILEKRAYICAHPLDRTC
B7: ACAD9 Arg469Trp (enzyme, human, UniProt Q9H845 38-621, looked up)
chain: AFAKELFLGKIKKKEVFPFPEVSQDELNEINQFLGPVEKFFTEEVDSRKIDQEGKIPDETLEKLKSLGLFGLQVPEEYGGLGFSNTMYSRLGEIISMDGSITVTLAAHQAIGLKGIILAGTEEQKAKYLPKLASGEHIAAFCLTEPASGSDAASIRSRATLSEDKKHYILNGSKVWITNGGLANIFTVFAKTEVVDSDGSVKDKITAFIVERDFGGVTNGKPEDKLGIRGSNTCEVHFENTKIPVENILGEVGDGFKVAMNILNSGRFSMGSVVAGLLKRLIEMTAEYACTRKQFNKRLSEFGLIQEKFALMAQKAYVMESMTYLTAGMLDQPGFPDCSIEAAMVKVFSSEAAWQCVSEALQILGGLGYTRDYPYERILRDTRILLIFEGTNEILRMYIALTGLQHAGRILTTRIHELKQAKVSTVMDTVGWRLRDSLGRTVDLGLTGNHGVVHPSLADSANKFEENTYCFGRTVETLLLRFGKTIMEEQLVLKRVANILINLYGMTAVLSRASRSIRIGLRNHDHEVLLANTFCVEAYLQNLFSLSQLDKYAPENLDEQIKKVSQQILEKRAYICAHPLDRTC

Target: the molecule itself
Assay: SEC

Stoichiometry N, 2:
B1
B2
B3
B4
B5
B6
B7
